# According to patent US20190352644A1, “INHIBITION OF MITOCHONDRIAL HYPOXIC STRESS INDUCED RNA EDITING BY APOBEC3G CYTIDINE DEAMINASE” (Health Research, Inc., priority 2015, published 2019):
# Experiments:
# NK cells = experiment: TM7SF3 C>U RNA editing in NK cells; format: cell-based, human; conditions: cellular crowding with hypoxia, IFN-γ 50 ng/ml
# Experimental: The HuT78, JVM3 and NK-92 cell-lines were obtained from ATCC. Hut 78 cells were cultured in IMDM (ATCC) containing 20% Fetal Bovine serum (FBS) (Sigma-Aldrich), JVM3 cells were cultured in RPMI (ATCC) containing 10% FBS and NK-92 cells were cultured in Alpha Minimum Essential medium without ribonucleosides and deoxyribonucleosides (Life Technologies) but with 2 mM L-glutamine and 1.5 g/L sodium bicarbonate as well as 0.2 mM inositol, 0.1 mM 2-mercaptoethanol, 0.02 mM folic acid, 500 U/ml IL-2 (Aldesleukin—a kind gift from Novartis), 12.5% horse serum (ATCC) and 12.5% FBS. […]
# Total RNA was isolated and reverse transcribed to generate cDNAs. […] To quantify RNA editing level, the major and minor chromatogram peak heights at putative edited nucleotides were quantified with Sequencher 5.0/5.1 software (Gene Codes, MI). […] For quantitative PCR to assess APOBEC3G and APOBEC3F gene expression, reactions using LightCycler™ 480 Probes Master and SYBR™ Green I dye were performed on a LightCycler™ 480 System (Roche). Quantification cycle (Cq) values were calculated by the instrument software using the maximum second derivative method, and the mean Cq value of duplicate PCR reactions was used for analysis.
# [1] = test system: monocyte enriched peripheral blood mononuclear cells (MEPs); experiment: SDHB c.136C>U RNA editing in interferon-treated MEPs (RT-PCR); format: cell-based, human; conditions: normoxic or hypoxic MEPs, 24 hours; IFN1 600 U per ml, IFNγ 200 U per ml; vs untreated
# From the text: The TLA-HEK293T™ 293T human embryonic kidney cell-line was obtained from Open Biosystems® (Huntsville, Ala.). Peripheral blood mononuclear cells of anonymous platelet donors were isolated from peripheral blood in Trima Accel™ leukoreduction system chambers (Terumo BCT®, Lakewood, Colo.) after thrombocytapheresis, in accordance with a protocol approved by the institutional review board of Roswell Park Cancer Institute. A density gradient centrifugation method using polysucrose-containing Lymphocyte Separation Medium (Mediatech®, Manassas, Va.) was used for PBMC isolation. […]
# For hypoxia, cells were cultured under 1% O2, 5% CO2 and 94% N2 in an Xvivo™ System (Biospherix®, Lacona, N.Y.). […] Differential viability of MEPs after 1-day culture in normoxia versus hypoxia was not observed as evaluated by Trypan blue stain. […]
# SDHB gene expression and c.136C>U RNA editing was quantified by RT-PCR. […]
molecule,measurement,setting,value
"IFNγ: Human IFNγ (PBL Assay Science; PeproTech in Example 3) (protein, UniProt P01579 24-161, looked up) Interferon gamma: QDPYVKEAENLKKYFNAGHSDVADNGTLFLGILKNWKEESDRKIMQSQIVSFYFKLFKNFKDDQSIQKSVETIKEDMNVKFFNSNKKKRDDFEKLTNYSVTDLNVQRKAIHELIQVMAELSPAAKTGKRKRSQMLFRG",RNA editing in TM7SF3,NK cells,did not further increase
same,increase of SDHB c.136C>U RNA editing level,[1],~3 fold
